Measurements from article PMC10557607 (bioRxiv, 2023).

Target: the molecule itself
Assay: SEC + other: dynamic light scattering

B1: AlbB expressed alone (natural protein, Streptomyces noursei)
chain: MNPGETVLPPQLREEIALLAVYLLSSGRGLLEEPADYGIYRCTDGARRALQLLDEHGGSTARLTAVRERLDEVMFAPMGEDRDMGAILDDLCRQMADALPEIETP
stoichiometry N: 2
